Our source for the Kd values is PMC11620640.

This test concerns the target SARS-CoV-2 Omicron BA.2 spike RBD (UniProt P0DTC2). Put plainly: SPR. On the technique in general: Surface plasmon resonance follows binding to a sensor surface in real time, without labels.
With “raccoon dog ACE2 (rdACE2), peptidase domain (PD), wild type (from UniProt B4XEP4) E38D”, the Kd stood at 245 nM. This counts as sub-micromolar.
To “raccoon dog ACE2 (rdACE2), peptidase domain (PD), wild type (from UniProt B4XEP4) L24Q” belongs 283 nM; to “raccoon dog ACE2 (rdACE2), peptidase domain (PD), wild type (from UniProt B4XEP4) R353K”, 136 nM.

For orientation: Kd means a measure of binding affinity in units of concentration.
